The values that follow come from PMC3682496.

The target in the test is maltose-binding protein (MBP-DHhN) modified with 6-azicholestanol (not stated | Drosophila). Kind of test: cross-linking.

The stoichiometry N is a count of units in the complex or per binding partner. In the case of “Scube2, HA-tagged (from UniProt Q9JJS0 29-997) (natural protein)”, the stoichiometry N amounted to 1.
